A protein production outcome set (Wang et al. 2014)

Experiment: label from the status in PepcDB records
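Further: failed if final PepcDB status was selected cloned or expressed and not failed if soluble or beyond.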

| Sequence | protein production |
| --- | --- |
| MRGPLSRPVCMKLGIDFGTSNSAAAAIVDGQVVPVRFGQALQFRTTVYFPETMRDPDDFSLTPALEYEVERLIDSGRRDALAAGRTPNNDSLRRDAIRIVRRQWMEEQVREPRSSAALLQNAVYGDEALDAYFLEGEGSLVQSPKSMLGYNLHPRARQTMTGIATHVLEHIRLTASRQFDINIRHATLGRPVQFRSSIGEAGNAQALEILQTAAIAAGFDSVDFLEEPAAAAMHYHVSHDSRHDTVVVDIGGGTTDVAHASVGGSAAPQVHRAWGIARGGTDIDLALSLAAYMPLFGRGITRVPTHHYVEAAMVQDMTRQREFRLHKYQDVPAPFDRRLQALQDTGNTARLYRGVEACKIALSELDRHQDALDFIERGLGVDVQAGALVASASNYLDELEGLLAQVRTEMATAPATVFLTGGMSRAGYIRDTVAAAFPESRLVHGDPSFGVVQGLAWAAAQDARLSDG | failed |
| MSSRKIGLNLVVIVALAALFTGIWALYNRPVSVPDWPERISGFSFSPFRLNQNPQSGRYPSAEQMRTDLELVARHTHSIRTYSVQGALGDIPALAEAFGLRVSLGIWLGPDLASNEAEIARAIRIANESPSVVRVIVGNEALFRREVTAEQLIAYLDRVRAAVKVPVTTAEQWHVYREHPELAQHVDLIAAHVLPYWEATPVADAVDFVLERARELKAAFPRKPLLLAEVGWPSNGRMRGSAEATPADQAIYLRRLTNALNGEGYSYFVIEAFDQPWKVSAEGSVGAYWGVYNADRKAKFNFTGPVVPIPKWRALAIASAVLAVLAFTLLLIDSSSLRQRGRTFLAVVSFACASVLVWIAYDYSQQYSTWFSLTVGALLGVGALGVVIVLFTEAHELAEAVWTRKRRRPFLPITAARAYRPKVSIHVPCYNEPPELLKQTLDALARLDYPDYEVLVIDNNTRDPAVWQPVEAHCARLGERFRFFHVAPLEGFKAGALNFALGHVAADVEVVAVIDADYCVDPDWLRHMVPHFGDPRIAVVQSPQDYRDQHESAFKRLCYAEYKGFFHIGMVTRNDRDAIIEHGTMTMIRRSVLDELRWPEWCITEDAELGLRVFEKGLSAAYFERSYGKGVMPDTFIDFKKQRFRWAYGAIQIMKRHTDALLRGRGPDGSRLTRGQRYHFVAGWLPWIADGLNIFFTLGALLWSAAMIIVPKRVDPPLLIFAILPLALFVFKVGKILFLYRRTVGVDLRDSFFAALAGLSLSHTIAKAVLYGFVTRGIPFFRTPKMRSSHGLLVALAEAREEVFVMLLLWGAAAGIVAVQGVPSRDLLIWVAMLLVQSLPYLAALVMALLSSLPKPREELAGGAEQIGG | failed |
| VDKVDSREEKITEKFDEPATYIEDAEQLEGEETLVTPGTQGERTVTRKIVTVNGVETANEVVNEEIITPGVAATIKRGAKK | failed |
| MASLDEKWEAVDNFKSVVVDRERDVVRVTKELYDLHSNREQLRGVTSSCNYRLTIPFAPHHFGSGKTTFARTYLELVQRFGETSLSTFASDPLKRTFLEKLKRASLLYADLKELKPTDPKERNLEWAVYYLLIKAACLQSGLPQPDPDECFKELKLRSDALVQKIRSILNIPSDQYLLVAFDEVGVLDESLDEFHFKRTHDGRVRPYNDFFGIISQLCKEPDLFFIVVGKSKGLSIKNYVSSVSKVILHFISLSPLDASSIVEFLEKSLLKTPTQVPVCNVLCSSSFSVNELADSLLECTGGVPGLLTRAVNMLLNYIIARKFVLNHLWNEY | failed |
| MSSEYKKGIFLALGAYILWGILPIYWRLIDEIGAFEILAFRIIFSVIFMIFVLIIGKNQRNAFFRDVNQLVSHPVQLIAIIVAGYVITVNWGTFIWAVSNGHVLQSSLGYYINPLVSIVLALIFLKERFNKFEWLAIIFALVGVLYMTIKIGEFPFISLLLAFSFGIYGLLKKIVHIDAISSITIECIVTAPAGLIYVIYLWQQQHITFGLNISSFWLLFSGAITAIPLILFSAGAKRIPLSLTGFIQYVGPTIMFILGIFVFKEPFNTDQLITFIFIWIGIVLYSISQYVQIKKNPVVK | failed |
| MRGPGSASVRGYGQCKDTLHTSSPFHEAPASVRRPRTTGRVHTLGIRAPPPPRSQPEFLFSGNPFAPVSSVQRDAARRVSPRIPSLDQASRRPVAKLVVPGGNGFIGTEICRVAVQNGHEVAAFGRTGRPALTPARHPWVQDVEWRAADVFAPDAWRDLLDGADAVVHTIATIREHPDRNVTFDRVNAESALRAAEAAVAADVGAVVFLSVRDKPPLVPYAFLSAKRRAERALREDHPSLRTVTLCPNLVYGARKTGTPTLAAVLNQAQGMRPHPYATAEGRPLPVEFVAAAAVQAAVTSTMEGTLTVPQIDDIGRTSGLVDPNAASTPSLAPLLVGLGGTALGAWLLRRWRAS | failed |
| MFRLEDFNFHNKTVFLRVDLNSPMKDGKIISDARFKAVLPTIRYLIESGAKVVIGTHQGKPYSEDYTTTEEHARVLSELLDQHVEYIEDIFGRYAREKIKELKSGEVAILENLRFSAEEVKNKPIEECEKTFLVKKLSKVIDYVVNDAFATAHRSQPSLVGFARIKPMIMGFLMEKEIEALMRAYYSKDSPKIYVLGGAKVEDSLKVVENVLRRERADLVLTGGLVANVFTLAKGFDLGRKNVEFMKKKGLLDYVKHAEEILDEFYPYIRTPVDFAVDYKGERVEIDLLSENRGLLHQYQIMDIGKRTAEKYREILMKARIIVANGPMGVFEREEFAIGTVEVFKAIADSPAFSVLGGGHSIASIQKYGITGITHISTGGGAMLSFFAGEELPVLRALQISYEKFKEVVK | not failed |
| MACEGRTMISDTYKVRVNLGLCALAAAITLAGCAGLPDQRLANEALKRGDTALAERNYKALADLGYSEAQVGLADIKVATRDPSQIKEAEATYRAAAATSPRAQARLGRLLVAKPDSTQAEREEAETLLKQAAKQGQSNTLIPLAMLYLSYPQSFPKVNAQQQIDQWRAAGNPEAGLAQVLLYRTQGTYDQHLGEVEKICKAALNTTDICYVELATVYQKRGQADQQAALLGQLKSAYARGAVPATRVDSVARVLADRSLGQTDEKTAKELLEQVAPANPASWVSLAQLVYDFPELGDTDQLMAYIDKGREAEQPRAELLLGRLYYEGKTLPADAQKAEQHLQAAAEAGEISAHYYLGQLYRRGYLGNVEPQKAVDHLLAAARGGQNSADYALAQLFSEGHGIRPQPGNAWVFAQLSQANPTPQSAELLQQLDQQLTPDQRNQAQQLLDQEKRARGSLAQGANSTLALEALQDDEKEVDGEDSL | failed |
| MFGLVDAVSFYARAEKVFDPSIRHKPVVVLTNNDGCICAVCPIARQLGVPKFVPYFKVKSFLAKHGVVVRSSNYELYADLSERMMNVIARYSDNHYVYSIDESFLHFKNFSCVDNWHEYGHVIRKAVWRETRLPVGVGFGATLTLAKAANHASKKLSGFDGVAVIDDKASRKEILSRMSLTEVWGIGSKLGKRLSILGLKNGWDLANQSPKAMRGQFGVVVERTVNELNGMPCLQWDEIGQDKQEIFSTRSFGQRVTDGHALKAALSSHASIVGAKVRRQGSLIKRLVIFASSSPHDDSYYKKSVIYEFPIATDNILKLVGAISYVFDNIYRQGVSFYRCGVGGVELENSQFQQQDMFSLSVNNPPLMKCYDQINHRYGRGAVEVAIAEKNEKWAMRRNFLSPRSTSNWSEIPKINCLEHHHHHH | failed |
| MIFSFIFKVAVISSSGALAPGPLTAATAAIGVKRGWKGGFWVSVGHAAVELPLVILIATGVAVVLTHSSALSLLSVAGGVMLLSFAFLTAKSAFSKTEEKAESSANPFSTGVALSALNPFFIAWWAGVGAVLITEAISLWGYAGIAVLYLSHVWLDFAWLILLAHLTSMAIFSAKAYRALLVALAALVFLFGVDFLHYGLFSKHLLPI | failed |
| MPTPAYMSINGETQGHITKDTYSADSVGNTWQEAHVDEFLVQELDHVLTVPRDPQSGQPTGQRVHRPLVVTKVQDRSSPLLFNALVSGEKLPECLIRFYRTSVQGKQEHYYSIKLIDALLVDIQTRMNHCQDAATADRVTEEVLKFTYRAIEVTHENCGTAGNDDWRAPREA | failed |
| MMKKTAAIISACMLTFALSACSGSNYVMHTNDGRTIVSDGKPQTDNDIGMISYKDANGNKQQINRTDVKEMVELEQLEHHHHHH | failed |
| MSEYLPIIIPSVFLVIPSIAILYMEKRFSTAVYTAVIGLLISFLSFTLFFSLGYYNYGVFNNALYLTKFGYFIAISSLIATILVVLGSSNDLKNWETGTSFLSLSLLTNIGVIYLAFAYNVLVIFASWAIASAATYVIAMLKKDYQSVEAGVKYLVMGLLSSSLMIIGLAFFVTAGNTLYLDPVISYQPLIVLSIIFFSIAFLFKIGAFPFQGWLPEVYSLADRFSVGFVSSVGKIVGIEPLLVILYYLIQDNSSSQVIYLTVVILFSIISVLSLIFGNISAFSRKDFAQILAYSSITQVGFMVIGIAMLPVNMNIAISGLMVYLLSYSIAQAGLFVSLSHVEKITGSSYFESFRGMSSGDRVLAFSMTILLLSLLGIPPILGFWAKLFVLESSFSQPWLTIIGFINSAISAGYYIPPIREIFREGQFKKVDSPERDSVIVAAVLSIALGIISPLIFGVLV | failed |
| MMQPKFCTRCLAMSTRPRITFNRDGVCNACLWQEQKSSVDWDDRNSKLLSLLDSHRSKNNSYDVIVPVSGGKDGSYVAYNLKHKFNMNPLCVTVTPPLETQLGAQNLKNFIKSGYDQVSININPETIRNINRAGFVHHGFPYFGWLVAIVTSVTRVAQQMNVPLIMYGEDAEMEYGGSSEKANLTTFGIEYMKRVGFEAGYEKVFSTLDLSDSDLYWLTFAEQDKTQVLFSHWSYFENWDPYRNYLVAKKQCGLQEADDTNFGTFTNFAQNDQYLYVLHTYLMYLKFGFGRSNQDACIEIRRGAMKREQAINLVRLYDGQFPDEFLQMYLEYYQMSEAEFNATLARWVNKDLFELKDGLWSPTFTIQ | failed |
| MKNIEKLEQSLTYEFKDKNLLIHALTHKSFKKSYNNERLEFLGDAVLDLVVGEYLFHKFAKDAEGDLSKLRAALVNEKSFAKIANSLNLGDFILMSVAEENNGGKEKPSILSDALEAIIGAIHLEAGFEFAKTIALRLIEKNFPQIDAKILIKDYKTKLQEITQGKIGQTPQYETVRAFGPDHLKQFEIALMLDGKELARAIAGSKKEAQQMAAKIALEKLGAL | not failed |
| MGICVVIPAFNAALTIEAVVRETLEQGLPLVVVDDGSEDGTADCVRGLPVNLVSHGRNRGKGAALKTGFAWALEYGFSGVITLDSDGQHDPTAITLLAETAKNDGWDILVASRFAQFNQMAGLRRHWNRFGAWCMKKRTGFQIDDSQSGFRYYSARLLRMVSLGKDGYDLEMEILMKAWQAGCTIGSVPVPARVADGRATSHFRPVRDTWNICMTFLRYMLEHHHHHH | failed |
| MGVFDKFLDIMKLNDDEYDDDDFYDDDFEDDDFDEKPHRSIFGNKKSRSDDFDDFDMDEDKHLAPSSGNKVTPMRQPAARRGVNMEVCVVKPTSVDDSREITETLLAGRTVILNLEGMDLEIAQRIIDFISGATFAISGNLQKISNYIFLVTPTNVDILEHHHHHH | not failed |
| MNANENVSDDRFAEMVWEAVSGGATLKDVHGIPQDMMEGLYAHAYDFYHKGRLDEAETFFRFLCIYDFYNPDYIMGLAAVCQLKKQFQKAVDLYAVAFALSKNDYRPVFFTGQCQLFMRKAAKARQCFELVCEQSGDESLRDKAQVYLDSLQEAEAEQSRQQEKEQA | failed |
| MPPIIKRRVMRKIIIASQNPAKVNAVRSAFSTVFPDQEWEFIGVSVPSEVADQPMSDEETKQGALNRVRNAKQRHPGAEYYVGLEAGIEENKTFAWMIVESDQQRGESRSACLMLPPLVLERLRQAKELGDVMDEVFGTENIKQKGGAIGLLTRHHLTRSTVYHQALILALIPFINPEHYPSA | not failed |
| MRDSFGDWAEKFLKSKEADGVSVSQLNSYKNYCRNHLSPLYMKSLSEILPADIQSIINETKLAKNTLKAIRNTASQIFRLAIENRAIDFNPADYVRIPKIALEHHHHHH | not failed |
| MKIIAFGASTSSTSINKALATFTANLVDGAQVQVLNINDYSVPMFSEDLEKEIGQAEGAQAFLRDLAQADAFVISFAEHNGHYPAAYKNLFDWATRINRALFGDKPAVYLSTSPGPGGAKSVLAAATASAPFFGGNVKASVSVPSFYDNFDLEQGVVTKPEIVAELKAAVAKLSA | failed |
